Laboratory results reported in patent US20170152311A1 (published 2017).

T1: recombinant human M-CSF (human, UniProt P09603 33-190, limits assumed)
T1 construct: The active form is described as a disulfide bonded dimer; also called M-SCF; CSF-1
T1 sequence: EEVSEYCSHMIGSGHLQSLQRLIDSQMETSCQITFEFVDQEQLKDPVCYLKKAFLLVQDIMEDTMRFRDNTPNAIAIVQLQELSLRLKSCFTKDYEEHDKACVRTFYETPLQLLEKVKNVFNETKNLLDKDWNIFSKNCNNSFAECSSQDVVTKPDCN


How the values were obtained:
[1] = biological target: T1, recombinant human M-CSF; test: SPR (Biacore), M-CSF amine-coupled on CM5 chip, antibody or Fab flowed, 25 C, 1:1 model
Description: Specifically, M-CSF was immobilized onto CM5 biosensor chip via amine coupling. 0.05 μg/ml M-CSF in 10mM Na Acetate pH 4.0 was injected at 1 μl/min for 5 minutes to achieve RL=6-12 RU. Test antibody (or Fab fragment) were flowed over the modified biosensor surface at varying concentrations. Test antibodies were diluted in 0.01 M HEPES pH 7.4, 0.15 M NaCL, 3 mM EDTA, 0.005% Surfactant P20 (HBS-EP) and all experiments were done at 25° C. Kinetic and affinity constants were determined using Biaevaluation software (Biacore) with a 1:1 interaction model/global fit.

[2] = biological target: T1, recombinant human M-CSF; test: SPR (Biacore), antibody captured on anti-mouse Fc chip, M-CSF flowed, 25 C, 1:1 model
Description: Binding properties of the aforementioned antibodies were analyzed using Biacore analyses. […] The aforementioned antibodies were then captured on the anti-mouse Fc/CM5 biosensor chip at 1.5 μg/ml for 3 min at 2 μl/min. MCSF was flowed over the modified biosensor surface at varying concentrations (Rmax ˜15). Test antibodies and antigen were diluted in 0.01 M HEPES pH 7.4, 0.15 M NaCL, 3 mM EDTA, 0.005% Surfactant P20 (HBS-EP). All experiments were performed at 25° C. Kinetic and affinity constants were determined using Biaevaluation software (Biacore) with a 1:1 interaction model/global fit.

[3] = biological target: T1, recombinant human M-CSF; test: SPR (Biacore), M-CSF amine-coupled on CM5 chip, antibody flowed 100 nM to 1.5 nM, 25 C, 1:1 model, n = 5
Description: (§1) To determine the relative differences in the binding affinity of intact antibodies by Biacore analysis, M-CSF was immobilized onto CMS biosensor chip via amine coupling. 0.05 μg/ml M-CSF in 10 mM Na-Acetate pH 4.0 was injected at 1 μl/min for 5 minutes to achieve RL=6-12 RU. Test antibody or Fab fragments were flowed over the modified biosensor surface at varying concentrations ranging from 100 nM to 1.5 nM in 2-fold dilutions. Test antibodies were diluted in 0.01 M HEPES pH 7.4, 0.15 M NaCL, 3 mM EDTA, 0.005% Surfactant P20 (HBS-EP) and all experiments were done at 25° C. Each concentration point and buffer blanks were run in triplicate, and data was collected over 3 minutes of association and 8 minutes of dissociation. Kinetic and affinity constants were determined using Biaevaluation software with a 1:1 interaction model/global fit.

[4] = biological target: T1, recombinant human M-CSF; test: SPR (Biacore), M-CSF amine-coupled on CM5 chip, antibody flowed, 25 C, 1:1 model, n = 5
Description: as §1

[5] = biological target: T1, recombinant human M-CSF; test: cell-based or functional assay
[6] = biological target: T1, recombinant human M-CSF; test: SPR (Biacore), M-CSF amine-coupled on CM5 chip, antibody flowed
Description: as §1

[7] = biological target: T1, recombinant human M-CSF; test: SPR (Biacore), M-CSF amine-coupled on CM5 chip, antibody flowed 100 nM to 1.5 nM, 25 C, 1:1 model
Description: as §1

[8] = biological target: T1, recombinant human M-CSF; test: SPR (Biacore), M-CSF amine-coupled on CM5 chip, antibody flowed, 25 C, 1:1 model
Description: as §1

Binder | IC50 Fold Loss [5] [fold] | fold decrease in binding affinity compared to the parent murine antibody [6] [fold] | Kd [8] [nM] | koff [8] [s⁻¹] | kon [8] [M⁻¹ s⁻¹] | also measured
murine monoclonal antibody 5H4 (antibody, mouse IgG1, kappa, V domains shown) VH: EIQLQQSGPELVKTGTSVKISCKASGYSFTGYFMHWVKQSHGKSLEWIGYISCYNGDTNYNQNFKGKATFTVDTSSSTAYMQFNSLTSEDSAVYYCAREGGNYPAYWGQGTLVTVSA VL: DIVMTQSHKFMSTSVGDRVTITCKASQNVGTAVTWYQQKPGQSPKLLIYWTSTRHAGVPDRFTGSGSGTDFTLTISDVQSEDLADYFCQQYSSYPLTFGAGTKLELKR | – | – | – | – | – | Kd [1]: 9.9 nM; koff [1]: 0.00126 s⁻¹; kon [1]: 127000 M⁻¹ s⁻¹; Kd [2]: 3 nM; koff [2]: 0.00177 s⁻¹; kon [2]: 594000 M⁻¹ s⁻¹
murine monoclonal antibody MC3 (antibody, V domains shown, Hybridoma ATCC PTA-6264) VH: DVQLQESGPGLVKPSQSLSLTCTVTGYSITSDYAWNWIRQFPGNKLEWMGYISYSGSTSYNPSLKSRISITRDTSKNQFFLQLNSVTTEDTATYYCARLETWLFDYWGQGTTLTVSS VL: not shown | – | – | – | – | – | Kd [2]: 0.27 nM; koff [2]: 0.000193 s⁻¹; kon [2]: 704000 M⁻¹ s⁻¹
heRX1-1.G2 (antibody, The legends may have 45 and 48 exchanged; also called heRX1-1-IgG2; heRX1-1.IgG2; not shown: human Gamma-2 heavy chain constant region; human Kappa light chain constant region (the printed V regions end in EIKRT, which may overlap its start)) heavy: DVQLQESGPGLVKPSQTLSLTCTVTDYSITSDYAWNWIRQFPGKKLEWMGYISYSGSTSYNPSLKSRITISRDTSKNQFSLQLNSVTAADTATYYCASFDYAHAMDYWGQGTTVTVSS light: EIVLTQSPGTLSVSPGERVTFSCRASQSIGTSIHWYQQKTGQSPRLLIKYASERISGIPDRFSGSGSGTDFTLTISRVESEDFADYYCQQINSWPTTFGQGTKLEIKRT | 2.8 | ≥ 7 | – | – | – | Kd [3]: 5.9 nM; koff [3]: 0.00137 s⁻¹; kon [3]: 236000 M⁻¹ s⁻¹; Kd [4]: 5.9 nM; koff [4]: 0.00137 s⁻¹; kon [4]: 236000 M⁻¹ s⁻¹
heRX1-1.G4 (antibody, also called heRX1-1-IgG4; heRX1-1.IgG4; not shown: human Kappa light chain constant region (the printed V regions end in EIKRT, which may overlap its start)) heavy: not shown light: EIVLTQSPGTLSVSPGERVTFSCRASQSIGTSIHWYQQKTGQSPRLLIKYASERISGIPDRFSGSGSGTDFTLTISRVESEDFADYYCQQINSWPTTFGQGTKLEIKRT | – | – | – | – | – | Kd [7]: 1.42 nM; koff [7]: 0.000293 s⁻¹; kon [7]: 207000 M⁻¹ s⁻¹
heRX1-7.G2 (antibody, V domains shown, copies: 2 + 2) VH: DVQLQESGPGLVKPSQTLSLTCTVTDYSITSDYAWNWIRQFPGKKLEWMGYISYSGSTSYNPSLKSRITISRDTSKNQFSLQLNSVTAADTATYYCASFDYAHAMDYWGQGTTVTVSS VL: EIVLTQSPGTLSVSPGERVTFSCRASQSIGTSIHWYQQKTGQAPRLLIKYASESISGIPDRFSGSGSGTDFTLTISRVESEDFADYYCQQINSWPTTFGQGTKLEIK | 6.1 | ≥ 7 | 9.5 | 0.00149 | 157000 | –
heRX1-1.G1 (antibody, heavy pMXC29 Low Risk (Kabat), Gamma 1; also called heRX1-1-IgG1; heRX1-1.IgG1; not shown: human Kappa light chain constant region (the printed V regions end in EIKRT, which may overlap its start)) heavy: not shown light: EIVLTQSPGTLSVSPGERVTFSCRASQSIGTSIHWYQQKTGQSPRLLIKYASERISGIPDRFSGSGSGTDFTLTISRVESEDFADYYCQQINSWPTTFGQGTKLEIKRT | – | – | – | – | – | Kd [7]: 0.95 nM; koff [7]: 0.000238 s⁻¹; kon [7]: 250000 M⁻¹ s⁻¹
rRX1 Fab (mouse) (Fab, V domains shown, Fab fragment; also called Fab fragment of RX1) VH: DVQLQESGPGLVKPSQSLSLTCTVTDYSITSDYAWNWIRQFPGNKLEWMGYISYSGSTSYNPSLKSRISITRDTSKNQFFLQLNSVTTEDTATYYCASFDYAHAMDYWGQGTSVTVSS VL: not shown | – | – | – | – | – | Kd [1]: 10.8 nM; koff [1]: 0.00303 s⁻¹; kon [1]: 281000 M⁻¹ s⁻¹
heRX1-4.G2 (antibody, V domains shown, not shown: human Gamma-2 heavy chain constant region; human Kappa light chain constant region (the printed V regions end in EIKRT, which may overlap its start)) VH: QVQLQESGPGLVKPSQTLSLTCTVSDYSITSDYAWNWIRQFPGKGLEWMGYISYSGSTSYNPSLKSRITISRDTSKNQFSLQLNSVTAADTAVYYCASFDYAHAMDYWGQGTTVTVSS VL: EIVLTQSPGTLSVSPGERVTFSCRASQSIGTSIHWYQQKTGQAPRLLIKYASERATGIPDRFSGSGSGTDFTLTISRVESEDFADYYCQQINSWPTTFGQGTKLEIKR | 4.6 | ≥ 7 | 4.6 | 0.00108 | 238000 | –
heRX1-8.G2 (antibody, V domains shown, copies: 2 + 2) VH: QVQLQESGPGLVKPSQTLSLTCTVSDYSITSDYAWNWIRQFPGKGLEWMGYISYSGSTSYNPSLKSRITISRDTSKNQFSLQLNSVTAADTAVYYCASFDYAHAMDYWGQGTTVTVSS VL: EIVLTQSPGTLSVSPGERVTFSCRASQSIGTSIHWYQQKTGQAPRLLIKYASESISGIPDRFSGSGSGTDFTLTISRVESEDFADYYCQQINSWPTTFGQGTKLEIK | 5.9 | ≥ 7 | 9.8 | 0.00148 | 152000 | –
heRX1-9.G2 (antibody, V domains shown, not shown: human Gamma-2 heavy chain constant region; human Kappa light chain constant region (the V region entry may overlap its start)) VH: DVQLQESGPGLVKPSQTLSLTCTVTDYSITSDYAWNWIRQFPGKKLEWMGYISYSGSTSYNPSLKSRITISRDTSKNQFSLQLNSVTAADTATYYCASFDYAHAMDYWGQGTTVTVSS VL: DIVLTQSPAFLSVTPGEKVTFTCQASQSIGTSIHWYQQKTDQAPKLLIKYASESISGIPSRFSGSGSGTDFTLTISSVEAEDAADYYCQQINSWPTTFGGGTKLEIKR | 3.6 | ≥ 7 | 7.2 | 0.00144 | 200000 | –
heRX1-5.G2 (antibody, V domains shown, not shown: human Gamma-2 heavy chain constant region; human Kappa light chain constant region (the printed V regions end in EIKRT, which may overlap its start)) VH: DVQLQESGPGLVKPSQTLSLTCTVTDYSITSDYAWNWIRQFPGKKLEWMGYISYSGSTSYNPSLKSRITISRDTSKNQFSLQLNSVTAADTATYYCASFDYAHAMDYWGQGTTVTVSS VL: EIVLTQSPGTLSVSPGERVTFSCRASQSIGTSIHWYQQKTGQSPRLLIKYASESISGIPDRFSGSGSGTDFTLTISRVESEDFADYYCQQINSWPTTFGQGTKLEIKR | 6.5 | ≥ 7 | 7.4 | 0.00129 | 175000 | –
heRX1-3.G2 (antibody, V domains shown, not shown: human Gamma-2 heavy chain constant region; human Kappa light chain constant region (the printed V regions end in EIKRT, which may overlap its start)) VH: DVQLQESGPGLVKPSQTLSLTCTVTDYSITSDYAWNWIRQFPGKKLEWMGYISYSGSTSYNPSLKSRITISRDTSKNQFSLQLNSVTAADTATYYCASFDYAHAMDYWGQGTTVTVSS VL: EIVLTQSPGTLSVSPGERVTFSCRASQSIGTSIHWYQQKTGQAPRLLIKYASERATGIPDRFSGSGSGTDFTLTISRVESEDFADYYCQQINSWPTTFGQGTKLEIKR | 5.3 | ≥ 7 | 5.9 | 0.00118 | 201000 | –
heRX1-2.G2 (antibody, V domains shown, not shown: human Gamma-2 heavy chain constant region; human Kappa light chain constant region (the printed V regions end in EIKRT, which may overlap its start)) VH: QVQLQESGPGLVKPSQTLSLTCTVSDYSITSDYAWNWIRQFPGKGLEWMGYISYSGSTSYNPSLKSRITISRDTSKNQFSLQLNSVTAADTAVYYCASFDYAHAMDYWGQGTTVTVSS VL: EIVLTQSPGTLSVSPGERVTFSCRASQSIGTSIHWYQQKTGQSPRLLIKYASERISGIPDRFSGSGSGTDFTLTISRVESEDFADYYCQQINSWPTTFGQGTKLEIKR | 3.1 | ≥ 7 | 7.6 | 0.00165 | 218000 | –
